We go through six molecules from paper PMC9470164, “Membrane-mediated dimerization potentiates PIP5K lipid kinase activity” (eLife, 2022).

Data set [1] has as its target human PIP5KB (D51R), purified, unlabelled (human).
The target of data set [2] is mNG-PIP5KB, recombinantly expressed and purified (human) (UniProt O14986).
For data set [3] the target is unchanged. The experiment in a line: single-molecule TIRF molecular brightness, photobleaching and tracking on supported lipid bilayers; purified mNG kinases at 100 pM; equilibrium membrane binding at ~600 kinases per field of view (0.2 kinases/µm^2); particles with intensity ≥8200 A.U. counted as dimers; membrane 96% DOPC, 4% PI(4,5)P2.
The target of data set [4] is mouse PIP5KA (D92R), purified (mouse).
In data set [5] the target is mouse PIP5KA, purified (mouse).
Data set [6] concerns the molecule itself. The experiment in a line: single-molecule TIRF molecular brightness and photobleaching on supported lipid bilayers; mNG-tagged kinase in HEK293 cell lysate diluted ~10,000-fold to ~10 pM (legend: 1 pM mNG-PIP4KB, 5 pM mNG-PIP5K); low surface density ~0.03 molecules/µm^2; membrane 96% DOPC, 4% PI(4,5)P2; 23°C.
Data set [7] concerns the molecule itself. Description: single-molecule TIRF molecular brightness on supported lipid bilayers; purified kinases labelled with Alexa488 by Sortase-mediated peptide ligation; membrane 96% DOPC, 4% PI(4,5)P2.

Regarding “human PIP5KB (D51R), purified, unlabelled (enzyme)”, the lipid kinase activity on supported lipid bilayers, reduction against wild-type PIP5KB in data set [1] stood at 7 fold.
Turning to “mNG-PIP5KB, recombinantly expressed and purified (from UniProt O14986 1-540) (enzyme)”, in data set [2], the effective phosphorylation rate constant per membrane-bound kinase (after the transition from slow to fast kinetics) (lipids/µm^2•s per kinase) was 0.0027. Besides, in data set [3], the fold frequency of dimers against mNG-PIP5KB (D51R) is 5 fold, the stoichiometry N worked out at 2 and the time that dimers persist before photobleaching or dissociating was 1 to 2 s.
The molecule mouse PIP5KA (D92R), purified (enzyme) gave a reaction half-time of PI(4,5)P2 production at 5, 2.5 and 1 nM kinase (71 s, 139 s, 270 s) in data set [4] of 270 s.
The molecule mouse PIP5KA, purified (enzyme) returned a reaction half-time of PI(4,5)P2 production at 5, 2.5 and 1 nM kinase (28 s, 49 s, 90 s) in data set [5] of 90 s.

B1: mNeonGreen-tagged human phosphatidylinositol 5-phosphate 4-kinase type-2 beta (mNG-PIP4KB) (enzyme, UniProt P78356 1-416, looked up)
chain: MSSNCTSTTAVAVAPLSASKTKTKKKHFVCQKVKLFRASEPILSVLMWGVNHTINELSNVPVPVMLMPDDFKAYSKIKVDNHLFNKENLPSRFKFKEYCPMVFRNLRERFGIDDQDYQNSVTRSAPINSDSQGRCGTRFLTTYDRRFVIKTVSSEDVAEMHNILKKYHQFIVECHGNTLLPQFLGMYRLTVDGVETYMVVTRNVFSHRLTVHRKYDLKGSTVAREASDKEKAKDLPTFKDNDFLNEGQKLHVGEESKKNFLEKLKRDVEFLAQLKIMDYSLLVGIHDVDRAEQEEMEVEERAEDEECENDGVGGNLLCSYGTPPDSPGNLLSFPRFFGPGEFDPSVDVYAMKSHESSPKKEVYFMAIIDILTPYDTKKKAAHAAKTVKHGAGAEISTVNPEQYSKRFNEFMSNILT
notes: human phosphatidylinositol 5-phosphate 4-kinase type-2 beta (PIP4KB, PIP4K2B); Lentiviral vector with SFFV promoter; also called hPIP4K2B; source: HEK293T, transiently transfected, in clarified cell lysate (diluted); not shown: mNeonGreen, N-terminal, kept
With B1, the “stoichiometry N” value in data set [6] was 2.

B2: Alexa488-labelled human PIP4KB (Ax488-PIP4KB), purified (enzyme)
chain: GGGGGMSSNCTSTTAVAVAPLSASKTKTKKKHFVCQKVKLFRASEPILSVLMWGVNHTINELSNVPVPVMLMPDDFKAYSKIKVDNHLFNKENLPSRFKFKEYCPMVFRNLRERFGIDDQDYQNSVTRSAPINSDSQGRCGTRFLTTYDRRFVIKTVSSEDVAEMHNILKKYHQFIVECHGNTLLPQFLGMYRLTVDGVETYMVVTRNVFSHRLTVHRKYDLKGSTVAREASDKEKAKDLPTFKDNDFLNEGQKLHVGEESKKNFLEKLKRDVEFLAQLKIMDYSLLVGIHDVDRAEQEEMEVEERAEDEECENDGVGGNLLCSYGTPPDSPGNLLSFPRFFGPGEFDPSVDVYAMKSHESSPKKEVYFMAIIDILTPYDTKKKAAHAAKTVKHGAGAEISTVNPEQYSKRFNEFMSNILT
modifications: Alexa488 on the N-terminal amine of the ligated LPETGG peptide
notes: glycine stretch of his6-SUMO3-GGGGG-PIP4K2B left after SenP2 cleavage; human PIP4K2B isoform 2, 1-416aa; Surmise: Sortase ligation leaves Alexa488-LPET joined to GGGGG-PIP4K2B; also called Alexa488-PIP4K; PIP4K2B; source: E. coli BL21(DE3) Star, purified (Co2+ HiTrap Chelating, Superdex 200), labelled by Sortase-mediated peptide ligation; not shown: His6, N-terminal, cleaved; SUMO3, N-terminal, …
On to B2, for which, in data set [7], the binding result is “binds”.

What is called stoichiometry N is a count of units in the complex or per binding partner.
